The supplement of paper PMC12764529
± gives the half width of the 95% confidence interval.

Experiments:
[1] = folding stability dG unfold from trypsin proteolysis; higher = more stable
Outline: (§1)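 Sequencing followed digestion of designed mini-proteins with trypsin and chymotrypsin, each at 11 concentrations in threefold dilutions together with a no-protease condition. The mini-proteins were under 80 residues, had no cysteine, sat in a PA-tagged cDNA display construct, and were kept only if AlphaFold2 dimer inter-PAE was above 15. From the counts, Bayesian fitting gave K50, and unfolding free energy was derived against a sequence-predicted unfolded-state K50 and a shared folded-state K50, per protease or combined.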

[2] = folding stability dG unfold from chymotrypsin proteolysis; higher = more stable
Outline: as §1

[3] = folding stability dG unfold (combined trypsin and chymotrypsin); higher = more stable
Outline: as §1

Sequence	folding stability dG unfold [1]	folding stability dG unfold [2]	folding stability dG unfold [3]
SAGGSAGGMELISEKPAKVKYGDKEAEVWVKLVKIPNTDEVLVTLYFPGSGKPRIIPAKDVEIESAGGSAGG [r6_263_TrMRF]	0.655 ± 0.1 kcal/mol	0.836 ± 0.18 kcal/mol	0.836 ± 0.19 kcal/mol
SAGGSAGGMELLPDGTLVLTLKAPSLEEALKAAEALAPPGAEVEIRFDEETKEVVIVIKLPPPESAGGSAGG [r6_859_TrROS_Hall]	2.46 ± 0.1 kcal/mol	4.06 ± 0.046 kcal/mol	3.85 ± 0.082 kcal/mol
SAGGSAGGMEPLTRVTVELELPGGETRVVEGDDLEAVKERLKEELGLPDLVVKSVKTTPLPALESAGGSAGG [r6_406_JUSTAS]	0.6 ± 0.045 kcal/mol	0.974 ± 0.027 kcal/mol	0.857 ± 0.077 kcal/mol
SAGGSAGGMIEVSYDPVKNRYIATFKFPEGEVTITLPADLSPEEKAAAIKAAAEAAAKEKGIKLSAGGSAGG [r6_679_JUSTAS]	1.68 ± 0.025 kcal/mol	2 ± 0.05 kcal/mol	1.88 ± 0.058 kcal/mol
SAGGSAGGMIKYSEEAPDPSYRTEVEVTPVPGKVAIKTTTYRNENGVWTAEESTSVVSPEALLSSAGGSAGG [r6_778_JUSTAS]	-0.703 ± 0.19 kcal/mol	0.341 ± 0.095 kcal/mol	0.0979 ± 0.088 kcal/mol
SAGGSAGGMILIKNEDGSLYLIEVETVTVTVKVKLPEELKELLKGIKPGDTITVTVTKVRIVKLSAGGSAGG [r6_907_TrROS_Hall]	3.79 ± 0.15 kcal/mol	4.58 ± 0.11 kcal/mol	4.32 ± 0.17 kcal/mol
SAGGSAGGMIYKFTYPKGEPPLLFTYDPSTGKVTVTEPKTGKPLGTVDLSLEEAVKAGARIEPVSAGGSAGG [r6_832_JUSTAS]	0.44 ± 0.073 kcal/mol	0.96 ± 0.085 kcal/mol	0.84 ± 0.057 kcal/mol
SAGGSAGGMKEITITNENGETLRIKVFNKETGEEKEIEFPAGMSLEDILKKLKEEEGLEVEIEPSAGGSAGG [r6_202_TrROS_Hall]	2.27 ± 0.14 kcal/mol	3.16 ± 0.071 kcal/mol	3.01 ± 0.16 kcal/mol
SAGGSAGGMKIEIFQNDDGIYVRIKLKPPNGPPRTMVFPFTANQIKDALKQFPNYKIEDIEVYRSAGGSAGG [r6_879_TrROS]	1.47 ± 0.12 kcal/mol	2.18 ± 0.09 kcal/mol	1.9 ± 0.15 kcal/mol
SAGGSAGGMKIIKYDKKTKKVLIYYDEETKEWYVRNKNGKIYKFKSVEEALKKLPVKVEIVKVPSAGGSAGG [r6_752_TrROS_Hall]	1.5 ± 0.035 kcal/mol	1.6 ± 0.14 kcal/mol	1.67 ± 0.089 kcal/mol
SAGGSAGGMKITIEKLDPEKGVYLLTVKPPGPGKTLVIELPVEKEEEALAFAKKLEELGYEVENSAGGSAGG [r6_796_TrMRF]	1.02 ± 0.02 kcal/mol	1.57 ± 0.12 kcal/mol	1.34 ± 0.13 kcal/mol
SAGGSAGGMKLTLRIEAPREEVERLAKEFEAQGIKVTVKPRPDGRVELTLEIDLPDTDKSLFDPSAGGSAGG [r6_8_TrMRF]	2.49 ± 0.17 kcal/mol	2.67 ± 0.057 kcal/mol	2.55 ± 0.12 kcal/mol
SAGGSAGGMKTFTIDELKKLAEELGAEIYYDKDTNTIYIRTPGKIFRITINDDGTVTIEELPPKSAGGSAGG [r6_155_TrROS_Hall]	3.05 ± 0.19 kcal/mol	3.99 ± 0.083 kcal/mol	3.66 ± 0.25 kcal/mol
SAGGSAGGMKVTLTPVSGEKYEIEVESEEEAKEKVEKLAKKLGIPGEVKVTIEKGDKTYELTIISAGGSAGG [r6_532_JUSTAS]	2.98 ± 0.2 kcal/mol	2.5 ± 0.11 kcal/mol	2.39 ± 0.42 kcal/mol
SAGGSAGGMKVTTEGNAAGTNTVTVSYPDGSSVTRTLAPDDVVEVPVGGEVVLTVTVTANPDLPSAGGSAGG [r6_583_JUSTAS]	-0.0728 ± 0.1 kcal/mol	0.0101 ± 0.061 kcal/mol	-0.0541 ± 0.12 kcal/mol
SAGGSAGGMLLDEDGNLVVKIKLENGEEFEAKVTEIKDGKITVEVNGKKVEINAKDIELLPEDESAGGSAGG [r6_575_TrROS_Hall]	2.23 ± 0.088 kcal/mol	2.27 ± 0.05 kcal/mol	2.31 ± 0.096 kcal/mol
SAGGSAGGMLLVRIKVRRPDGSEETIVLEFESEEELKAAIEELLPPGWEVVEIELVPLGEELPESAGGSAGG [r6_872_TrROS_Hall]	4.55 ± 0.17 kcal/mol	4.402 ± 0.042 kcal/mol	4.49 ± 0.11 kcal/mol
SAGGSAGGMLPAEELADYLEKNPGIEIEDIEPPDPGYITVKIKFPRPDPNGEKHKVEVTIQFPVSAGGSAGG [r6_154_TrROS]	1.91 ± 0.24 kcal/mol	1 ± 0.075 kcal/mol	1.4 ± 0.32 kcal/mol

Sequence	folding stability dG unfold [1]	folding stability dG unfold [2]	folding stability dG unfold [3]
SAGGSAGGMLSPEVLEDPEKVIEFLKKMIPGLKIVVPPDAPPEVVEAAAKLAEETGIPVEIVVGSAGGSAGG [r6_129_TrMRF]	1.06 ± 0.026 kcal/mol	-0.539 ± 0.48 kcal/mol	0.555 ± 0.18 kcal/mol
SAGGSAGGMLVFVVKKIKPGMSDEQKKALEKLVKPGDVIELSPEEIERLAKLPWIQEIKVYPLPSAGGSAGG [r6_381_TrROS_Hall]	0.641 ± 0.12 kcal/mol	0.361 ± 0.34 kcal/mol	0.548 ± 0.2 kcal/mol
SAGGSAGGMPEYRVLDIEIETRPDMTPEEAVEEIRKALEPLGAIRVEAEPLPDGRIRVRVVLPESAGGSAGG [r6_881_TrMRF]	3.5 ± 0.28 kcal/mol	2.45 ± 0.25 kcal/mol	3.27 ± 0.32 kcal/mol
SAGGSAGGMPVSVEIELTVPTSPDETPEEALERIREELAPLGVEEVTATPLPDGTVRFRITVPRSAGGSAGG [r6_882_JUSTAS]	1.44 ± 0.048 kcal/mol	0.504 ± 0.2 kcal/mol	0.961 ± 0.13 kcal/mol
SAGGSAGGMRLEIVVEMSEEEARELAEALRRELEERGYRVRVEVRRLPDGRLVVRVEIEPAPEPSAGGSAGG [r6_597_TrROS_Hall]	4.47 ± 0.19 kcal/mol	4.49 ± 0.093 kcal/mol	4.63 ± 0.17 kcal/mol
SAGGSAGGMRLVVEDFDEEEMEEVERRVREFAEEHDVEVDIYRRRRPDGRVVLVVEIRPKEDLPSAGGSAGG [r6_906_TrMRF]	2.87 ± 0.058 kcal/mol	3.02 ± 0.034 kcal/mol	2.95 ± 0.052 kcal/mol
SAGGSAGGMTFVDLGEDKPVVIEVPPRPETGLYPVVIHPPEKPVFVEVESPEEAIEAAEKLVEGSAGGSAGG [r6_715_TrMRF]	1.42 ± 0.051 kcal/mol	0.788 ± 0.045 kcal/mol	1.12 ± 0.045 kcal/mol
SAGGSAGGMTITLRIKITNPDGEEKEIEVELELPEELKGKTLEELAAELAKALLPPGAKVEVEPSAGGSAGG [r6_821_TrROS_Hall]	1.73 ± 0.048 kcal/mol	3.15 ± 0.074 kcal/mol	2.72 ± 0.14 kcal/mol
SAGGSAGGMTITLTLPDGTVITITVSRPGSPTTVVSVKAERPARGGTDIPEEVAKELAEKILKESAGGSAGG [r6_235_JUSTAS]	1.51 ± 0.037 kcal/mol	2.96 ± 0.11 kcal/mol	2.55 ± 0.076 kcal/mol
SAGGSAGGMTKTEVTVTVEKVPDGTYVVKTTKTTTTTNPDGTLTSSTTTTTKTVTPEELAAVLASAGGSAGG [r6_974_JUSTAS]	3.7 ± 0.15 kcal/mol	2.86 ± 0.044 kcal/mol	3.16 ± 0.11 kcal/mol
SAGGSAGGMTLLIRDPETNELVEVTVEEKDGKLTLTVRNKKTGETTEIEIPLDEEPIEIVLLEPSAGGSAGG [r6_465_TrROS_Hall]	2.09 ± 0.12 kcal/mol	2.61 ± 0.021 kcal/mol	2.43 ± 0.12 kcal/mol
SAGGSAGGMTLVLEGMSEEELEELARKLRELAEELGLKVKITVERREDGRVRLTVEIELPEELPSAGGSAGG [r6_906_TrROS_Hall]	4.36 ± 0.26 kcal/mol	3.69 ± 0.23 kcal/mol	4.15 ± 0.25 kcal/mol
SAGGSAGGMTVDPENPVVYYPGSDGKAQTYPLSPDSSLKLPDGKVVTVTPVPEGSVSVSVSPVESAGGSAGG [r6_296_JUSTAS]	0.571 ± 0.03 kcal/mol	1.249 ± 0.011 kcal/mol	1.02 ± 0.036 kcal/mol
SAGGSAGGMTVPITLPLDEYSPEEVEAKIKAIREEIEKKNPDKKISINVTLVPQPPEPTPENLRSAGGSAGG [r6_729_JUSTAS]	-0.745 ± 0.14 kcal/mol	0.517 ± 0.023 kcal/mol	0.299 ± 0.07 kcal/mol
SAGGSAGGMTVTFTLPATAPENALENVTATVTYNGKTYLVKITATPVPDGPFVVVTAELVEYDPSAGGSAGG [r6_415_TrMRF]	3.02 ± 0.083 kcal/mol	3.68 ± 0.14 kcal/mol	3.34 ± 0.17 kcal/mol
SAGGSAGGMVERPITLRVRVKTPEEVKKLVEELLKPTDAKADVVEEELEDGTVLVTLTIYVPEESAGGSAGG [r6_719_TrMRF]	1.67 ± 0.019 kcal/mol	1.58 ± 0.038 kcal/mol	1.62 ± 0.042 kcal/mol
SAGGSAGGMVIEFPKEKVEEVKKELLDAGKPDWVIVTDPNDPDIIKIMPKSLAEEKGWKYTPLLSAGGSAGG [r6_710_JUSTAS]	2.33 ± 0.073 kcal/mol	2.06 ± 0.043 kcal/mol	2.09 ± 0.16 kcal/mol
SAGGSAGGMVIHEIEVESPDPEKAEEEAKARAEEIRKALEEEEGGIPGEVKFVPTPEEDPLLLLSAGGSAGG [r6_23_JUSTAS]	1.99 ± 0.13 kcal/mol	0.834 ± 0.075 kcal/mol	1.43 ± 0.13 kcal/mol
